Patent US20250059285A1 (ARGENX, published 2025)

T1: human Gal10-His (human, UniProt Q05315 2-142, limits assumed)
T1 construct: also called hGal10-His; human Gal10-His tagged; not shown: His tag
T1 sequence: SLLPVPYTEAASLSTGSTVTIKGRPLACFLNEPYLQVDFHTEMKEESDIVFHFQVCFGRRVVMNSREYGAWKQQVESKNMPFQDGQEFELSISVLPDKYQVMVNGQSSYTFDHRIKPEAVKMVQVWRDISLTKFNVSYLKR

B1: g20B05 (Fab, periplasmic extract) (Fab, V domains shown)
VH: EVQLLESGGGLVQPGGSLRLSCAASGFTFRSYDMSWVRQAPGKGLEWVSAIKPVGITYYADSVKGRFTISRDNSKNTLYLQMNSLRAEDTAVYYCATTHGIGTLGFGSWGQGTLVTVSS
VL: SYELTQPLSVSVALGQTARITCDGNNIGSKSAQWYQQKPGQAPVLVIYADEYRPEGIPERFSGSNSGNTATLTISRAQAGDEADYYCQVWDGSAAVFGGGTQLTVL
notes: X3 library; VH assembled by inference
B2: g24F02 (human Fab) (Fab, V domains shown)
VH: EVQLLESGGGLVQPGGSLRLSCAASGFTFSSYAMSWVRQAPGKGLEWVSAINNGGGSTSYADSVKGRFTISRDNSKNTLYLQMNSLRAEDTAVYYCAKGLRVGVLGFDYWGQGTLVTVSS
VL: SYELTQPLSVSVALGQTARITCDGNNIGSKSAQWYQQKPGQAPVLVIYADEYRPEGIPERFSGSNSGNTATLTISRAQAGDEADYYCQVWDGSAAVFGGGTQLTVL
notes: Human Fab backbone (human CH1, human lambda CL); also called germlined 24F02
B3: g21F11 (Fab, periplasmic extract) (Fab, V domains shown)
VH: EVQLLESGGGLVQPGGSLRLSCAASGFTFRSYDMSWVRQAPGKGLEWVSAIHTPMTYYADSVKGRFTISRDNSKNTLYLQMNSLRAEDTAVYYCATTHGIGTLGFGSWGQGTLVTVSS
VL: SYELTQPLSVSVALGQTARITCDGNNIGSKSAQWYQQKPGQAPVLVIYADEYRPEGIPERFSGSNSGNTATLTISRAQAGDEADYYCQVWDGSAAVFGGGTQLTVL
notes: X4 library; VH assembled by inference
B4: g21C06 (Fab, periplasmic extract) (Fab, V domains shown)
VH: EVQLLESGGGLVQPGGSLRLSCAASGFTFRSYDMSWVRQAPGKGLEWVSAIKRPWTYYADSVKGRFTISRDNSKNTLYLQMNSLRAEDTAVYYCATTHGIGTLGFGSWGQGTLVTVSS
VL: SYELTQPLSVSVALGQTARITCDGNNIGSKSAQWYQQKPGQAPVLVIYADEYRPEGIPERFSGSNSGNTATLTISRAQAGDEADYYCQVWDGSAAVFGGGTQLTVL
notes: as for B3
B5: g22C03 (Fab, periplasmic extract) (Fab, V domains shown)
VH: EVQLLESGGGLVQPGGSLRLSCAASGFTFRSYDMSWVRQAPGKGLEWVSAIKLGTFTYYADSVKGRFTISRDNSKNTLYLQMNSLRAEDTAVYYCATTHGIGTLGFGSWGQGTLVTVSS
VL: SYELTQPLSVSVALGQTARITCDGNNIGSKSAQWYQQKPGQAPVLVIYADEYRPEGIPERFSGSNSGNTATLTISRAQAGDEADYYCQVWDGSAAVFGGGTQLTVL
notes: X5 library; VH assembled by inference
B6: g21B01 (Fab, periplasmic extract) (Fab, V domains shown)
VH: EVQLLESGGGLVQPGGSLRLSCAASGFTFRSYDMSWVRQAPGKGLEWVSAISGALTYYADSVKGRFTISRDNSKNTLYLQMNSLRAEDTAVYYCATTHGIGTLGFGSWGQGTLVTVSS
VL: SYELTQPLSVSVALGQTARITCDGNNIGSKSAQWYQQKPGQAPVLVIYADEYRPEGIPERFSGSNSGNTATLTISRAQAGDEADYYCQVWDGSAAVFGGGTQLTVL
notes: as for B3
B7: g23G11 (Fab, periplasmic extract) (Fab, V domains shown)
VH: EVQLLESGGGLVQPGGSLRLSCAASGFTFRSYDMSWVRQAPGKGLEWVSAIQKTIVPTYYADSVKGRFTISRDNSKNTLYLQMNSLRAEDTAVYYCATTHGIGTLGFGSWGQGTLVTVSS
VL: SYELTQPLSVSVALGQTARITCDGNNIGSKSAQWYQQKPGQAPVLVIYADEYRPEGIPERFSGSNSGNTATLTISRAQAGDEADYYCQVWDGSAAVFGGGTQLTVL
notes: X6 library; VH assembled by inference
B8: g20F04 (Fab, periplasmic extract) (Fab, V domains shown)
VH: EVQLLESGGGLVQPGGSLRLSCAASGFTFRSYDMSWVRQAPGKGLEWVSAIKHQVITYYADSVKGRFTISRDNSKNTLYLQMNSLRAEDTAVYYCATTHGIGTLGFGSWGQGTLVTVSS
VL: SYELTQPLSVSVALGQTARITCDGNNIGSKSAQWYQQKPGQAPVLVIYADEYRPEGIPERFSGSNSGNTATLTISRAQAGDEADYYCQVWDGSAAVFGGGTQLTVL
notes: X3 library
B9: g23H11 (Fab, periplasmic extract) (Fab, V domains shown)
VH: EVQLLESGGGLVQPGGSLRLSCAASGFTFRSYDMSWVRQAPGKGLEWVSAISKMPHLTYYADSVKGRFTISRDNSKNTLYLQMNSLRAEDTAVYYCATTHGIGTLGFGSWGQGTLVTVSS
VL: SYELTQPLSVSVALGQTARITCDGNNIGSKSAQWYQQKPGQAPVLVIYADEYRPEGIPERFSGSNSGNTATLTISRAQAGDEADYYCQVWDGSAAVFGGGTQLTVL
notes: as for B7
B10: g23E05 (Fab, periplasmic extract) (Fab, V domains shown)
VH: EVQLLESGGGLVQPGGSLRLSCAASGFTFRSYDMSWVRQAPGKGLEWVSAIRTFEHHTYYADSVKGRFTISRDNSKNTLYLQMNSLRAEDTAVYYCATTHGIGTLGFGSWGQGTLVTVSS
VL: SYELTQPLSVSVALGQTARITCDGNNIGSKSAQWYQQKPGQAPVLVIYADEYRPEGIPERFSGSNSGNTATLTISRAQAGDEADYYCQVWDGSAAVFGGGTQLTVL
notes: as for B7

How the values were obtained:
human Gal10-His [1] = target: T1, human Gal10-His; experiment: SPR Biacore 3000, Fab periplasmic extract on Gal10-His-coated CM5
Method: The binding properties of the Fabs (periplasmic extract) to human Gal10-His were analyzed by SPR with a Biacore 3000 instrument. For this purpose, the diluted periplasmic extract was applied on a CM5 chip coated with human Gal10-His. As a positive control, a 20 nM injection of the purified g7B07 clone in the human Fab backbone was included at the beginning and end of the run.
The binding capacity of the Fab periplasmic extract was analyzed by SPR technology using a Biacore 3000. Briefly, diluted periplasmic extracts were injected on CM5 chip coated with 2500 RU of Gal10-His. The amplitude of the binding (Rmax), the dissociation (off-rate) of each clone, as well as the off-rate fold change compared to the controls (g7B07 and g7B07_N53A) are indicated. Clones g20H09 and g23H09 had similar or better off rate compared to the control g7B07 (Table 10). The randomized part of the CDR2 sequence is underlined (Table 10).

[2] = target: T2, cynomolgus Gal10-His (WGS isoform) (cynomolgus); experiment: SPR Biacore 3000, hFab on captured cynomolgus Gal10-His (WGS); column head prints (M), the text gives nM
T2 construct: also called cynomolgus antigen
Method: (§1) The binding properties of the selected clones to human and cynomolgus Gal10 was analyzed via a capture method established on a Biacore 3000 instrument.
(§2) For this purpose, two approaches were used. In the first, two concentrations of the selected clones were applied on cynomolgus (WGS isoform) Gal10-His capture on a CM5 chip coated with a monoclonal anti-His antibody. The second approach involved a serial dilution that was applied on human or cynomolgus (WGS isoform) Gal10-His in the same set-up.

human Gal10-His [3] = target: T1, human Gal10-His; experiment: SPR Biacore 3000, purified hFab on captured Gal10-His
Method: (§3) The binding properties of the selected Fab clones to human Gal10 were analyzed via a capture method established on a Biacore 3000 instrument. Two concentrations of the selected Fab clones were tested on human Gal10-His immobilized on a CM5 chip coated with a monoclonal anti-His. As controls, the clone g7B07 and g7B07_N53A were injected at the beginning and the end of the run. Briefly, a CM5 chip was coated with a monoclonal anti-His antibody (4000 RU), then a fixed concentration of the human Gal10-His (25 μg/mL) was captured on the anti-His chip before receiving two concentrations of the clones in the human Fab backbone.

human Gal10-His [4] = target: T1, human Gal10-His; experiment: SPR Biacore 3000, hFab on captured human Gal10-His; column head prints (M), the text gives nM
Method: as §1, §2

human Gal10-His [5] = target: T1, human Gal10-His; experiment: SPR slope against calibrators on captured Gal10-His; sample 2 weeks at 37 C
Method: (§4) The binding properties of the seven selected clones following two weeks of temperature stress was analysed using an optimized capture method on a Biacore 3000 instrument. The binding properties of the stressed samples were determined, compared to the calibration point, and expressed as a percentage of Relative Activity (% RA).
(§5) Briefly, a capture method was set-up on a Biacore 3000 instrument. For this purpose, a CM5 chip was coated with a monoclonal anti-His antibody (4000 RU), then a fixed concentration of the human Gal10-His (25 μg/mL) was captured on the anti-His chip before receiving duplicate injections of the calibrators, QC samples and temperature stressed samples of each clone. The slope of each injected sample was then calculated using the BIA evaluation software. Concentrations of the QC samples and temperature stressed samples were back-calculated by interpolating the obtained slopes of these samples to the calibrator curve. Obtained values were within +/−20% of the nominal concentration of the tested samples and are expressed as average relative accuracy (avg % RA) (Table 13).

human Gal10-His [6] = target: T1, human Gal10-His; experiment: SPR Biacore 3000, hFab on human Gal10-His captured by anti-His CM5
Method: as §1, §2

human Gal10-His [7] = target: T1, human Gal10-His; experiment: competition ELISA on coated Gal10-His; hFab 20 ug/mL, competitor g7B07-hFab-Biot, streptavidin-HRP
Method: An epitope binning analysis of the humanized Fab clones was carried out in comparison with the humanized Fab of g7B07.
For this experiment, a sub-optimal concentration of the biotinylated clone g7B07-humanized Fab was added to the Gal10 coated plate and pre-incubated with the selected clones. The percentage competition with g7B07 was then determined (Table 17). Motavizumab (Mota) in a human Fab backbone was used as a negative control (0% competition). Clone g7B07 was used as the positive control for competition and was therefore set as the 100% competition value. The anti-human specific clone 1D11 (binding to Tyrosine 69 residue) was included in the tested panel as a negative control for competition with 7B07 for Gal10 binding because it was known that clone 1D11 binds to the opposite side of Gal10 (including Tyrosine 69).

human Gal10-His [8] = target: T1, human Gal10-His; experiment: SPR Biacore 3000, purified hFab (2 conc.) on Gal10-His captured by anti-His CM5
Method: as §3

human Gal10-His [9] = target: T1, human Gal10-His; experiment: SPR slope against calibrators on captured Gal10-His; T0 sample
Method: as §4, §5

[10] = target: T2, cynomolgus Gal10-His (WGS isoform); experiment: SPR Biacore 3000, hFab on cynomolgus Gal10-His (WGS) captured by anti-His CM5
Method: as §1, §2

| Binder | Fold off-rate compared to g7B07 (human Gal10-His [1]) [fold] | koff (human Gal10-His [1]) [s⁻¹] | also measured |
| --- | --- | --- | --- |
| B1 | 3.3 | 0.023 | – |
| B2 | – | – | Kd [2]: 5.4 nM; fold better affinity than g7B07 (human Gal10-His [3]): 4.7 fold; Kd (human Gal10-His [4]): 1.49 nM; % Relative Activity (RA) on Biacore (human Gal10-His [5]): 175%; Amplitude R0 (human Gal10-His [6]): 644 RU; koff (human Gal10-His [6]): 0.0016 s⁻¹; kon (human Gal10-His [6]): 1.1e+06 M⁻¹ s⁻¹; % Competition against g7B07-Biot (human Gal10-His [7]): 96.5%; Mean OD value (human Gal10-His [7]): 0.26 OD; Kd (human Gal10-His [8]): 2 nM; kd-fold drop vs g7B07 (human Gal10-His [8]): 2.8 fold; koff (human Gal10-His [8]): 0.0016 s⁻¹; kon (human Gal10-His [8]): 830000 M⁻¹ s⁻¹; % Relative Activity (RA) on Biacore (human Gal10-His [9]): 101%; Amplitude R0 [10]: 566 RU; koff [10]: 0.0078 s⁻¹; kon [10]: 1.4e+06 M⁻¹ s⁻¹ |
| B3 | 5.1 | 0.035 | – |
| B4 | 5.2 | 0.036 | – |
| B5 | 2.9 | 0.02 | – |
| B6 | 3.8 | 0.026 | – |
| B7 | 2.6 | 0.018 | – |
| B8 | 2.3 | 0.016 | – |
| B9 | 3.6 | 0.025 | – |
| B10 | 1.8 | 0.013 | – |
